T1: Tip20p, full-length (residues 1-701) (S. cerevisiae, UniProt P33891 1-701)
T1 sequence (looked up): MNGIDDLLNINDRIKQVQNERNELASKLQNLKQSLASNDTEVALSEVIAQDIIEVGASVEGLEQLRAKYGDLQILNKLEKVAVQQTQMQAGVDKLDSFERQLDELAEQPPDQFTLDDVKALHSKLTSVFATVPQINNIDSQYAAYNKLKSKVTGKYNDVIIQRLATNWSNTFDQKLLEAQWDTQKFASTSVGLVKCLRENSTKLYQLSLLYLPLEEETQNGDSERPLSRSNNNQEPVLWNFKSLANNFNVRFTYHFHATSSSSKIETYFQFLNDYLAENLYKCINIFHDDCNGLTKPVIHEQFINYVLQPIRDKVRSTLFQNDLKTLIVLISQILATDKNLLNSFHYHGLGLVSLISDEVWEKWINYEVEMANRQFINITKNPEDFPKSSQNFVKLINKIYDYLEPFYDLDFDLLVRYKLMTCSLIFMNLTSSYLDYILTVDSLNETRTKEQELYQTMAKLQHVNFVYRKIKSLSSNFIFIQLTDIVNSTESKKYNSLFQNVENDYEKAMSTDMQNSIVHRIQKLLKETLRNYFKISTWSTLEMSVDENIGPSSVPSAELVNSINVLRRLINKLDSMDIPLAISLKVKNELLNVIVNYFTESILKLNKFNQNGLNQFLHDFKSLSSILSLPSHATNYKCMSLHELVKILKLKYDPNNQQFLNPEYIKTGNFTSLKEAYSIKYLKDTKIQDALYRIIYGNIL

T2: Tip20ΔN (Tip20p residues 82-701) (S. cerevisiae, UniProt P33891 82-701)
T2 sequence (looked up): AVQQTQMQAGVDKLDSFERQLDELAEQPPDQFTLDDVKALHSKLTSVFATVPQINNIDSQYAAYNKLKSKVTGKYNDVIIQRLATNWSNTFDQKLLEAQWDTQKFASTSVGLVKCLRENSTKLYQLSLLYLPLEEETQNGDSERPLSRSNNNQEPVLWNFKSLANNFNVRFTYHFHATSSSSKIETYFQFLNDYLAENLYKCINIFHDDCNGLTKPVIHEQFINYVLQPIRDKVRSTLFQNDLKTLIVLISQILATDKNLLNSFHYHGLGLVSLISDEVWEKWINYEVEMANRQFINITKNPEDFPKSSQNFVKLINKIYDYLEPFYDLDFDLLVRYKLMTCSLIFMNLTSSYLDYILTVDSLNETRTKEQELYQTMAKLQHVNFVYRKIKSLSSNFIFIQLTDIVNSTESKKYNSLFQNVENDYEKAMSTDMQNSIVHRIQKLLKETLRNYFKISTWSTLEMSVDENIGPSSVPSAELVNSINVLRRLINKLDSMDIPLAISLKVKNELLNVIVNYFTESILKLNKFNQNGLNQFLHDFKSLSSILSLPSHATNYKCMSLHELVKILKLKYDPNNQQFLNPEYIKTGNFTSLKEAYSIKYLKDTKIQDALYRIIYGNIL

B1: Sec20ΔC (cytoplasmic domain of Sec20p, residues 1-275) (domain or fragment, S. cerevisiae, UniProt P28791 1-275, looked up)
chain: MVVTFLQDLEVLQDALLNNLQKLSAISRRKESGESKHDNKDSFAAIANEHNDEEEEIEFEDLVNIIESKVSDFESVLKCSIVEMTYKYPELKLQWEKSPRYDQCDKLHIVKLDKQMNEDIYAQLVEELDFVLQFVDWFYCYRLKVKEILRQHHKRDLAWNDEKRDRAIKFHAVDYDKLHQGTSSSSSLTSTSMEKASTREKLLSKTKQLTNNLVRGNQILQSGILQSDLNLDELRAQTNSLTQIDDKYTQFETVFKKTADLVKVLENASHQEKRD
B2: Dsl1ΔC (Dsl1p residues 1-361) (domain or fragment, S. cerevisiae, UniProt P53847 1-361, looked up)
chain: MESLFPNKGEIIRELLKDPLILKNDSKRSNGSELELDSSDLLQREAILANELNILDNLKTFLNLIKEVKTNLNILELENCYYSLQSLRKKMRNNAAYLKQSFNFQQSISTYVDTLHLELVSTLYKILTNGFWKITENSIQFTPTVEWGKDKVHIEYDTFMDFVAQQYFPKGSLDNQAWFILDMTSADSQEQVRAKLNTIMKEYMNLSRIVSMIKNSIFISGKEISYENEKNILVFSKSSSHGQHCVSTVLTSFEAVCDFMLDGLAFRDRKTLSYELGPLFNTEFTKFVKNNASIILESLDSPLKNLVSVINNKLTRLVAKSEVTNWTHSGKEIQDLLMNKQLYYNLLLDKVLESHISEIRS
B3: GST-Tip20p (residues 1-43) (domain or fragment, S. cerevisiae, UniProt P33891 1-43, looked up)
chain: MNGIDDLLNINDRIKQVQNERNELASKLQNLKQSLASNDTEVA

Assays:
[1] = biological target: intact Dsl1p complex (Tip20p-Dsl1p-Sec39p) (S. cerevisiae, UniProt P33891 1-701; P53847 1-754; Q12745 1-709); test: SEC
Chain of intact Dsl1p complex (Tip20p-Dsl1p-Sec39p) (Q12745 whole entry, the tested form may be a part, one chain of several): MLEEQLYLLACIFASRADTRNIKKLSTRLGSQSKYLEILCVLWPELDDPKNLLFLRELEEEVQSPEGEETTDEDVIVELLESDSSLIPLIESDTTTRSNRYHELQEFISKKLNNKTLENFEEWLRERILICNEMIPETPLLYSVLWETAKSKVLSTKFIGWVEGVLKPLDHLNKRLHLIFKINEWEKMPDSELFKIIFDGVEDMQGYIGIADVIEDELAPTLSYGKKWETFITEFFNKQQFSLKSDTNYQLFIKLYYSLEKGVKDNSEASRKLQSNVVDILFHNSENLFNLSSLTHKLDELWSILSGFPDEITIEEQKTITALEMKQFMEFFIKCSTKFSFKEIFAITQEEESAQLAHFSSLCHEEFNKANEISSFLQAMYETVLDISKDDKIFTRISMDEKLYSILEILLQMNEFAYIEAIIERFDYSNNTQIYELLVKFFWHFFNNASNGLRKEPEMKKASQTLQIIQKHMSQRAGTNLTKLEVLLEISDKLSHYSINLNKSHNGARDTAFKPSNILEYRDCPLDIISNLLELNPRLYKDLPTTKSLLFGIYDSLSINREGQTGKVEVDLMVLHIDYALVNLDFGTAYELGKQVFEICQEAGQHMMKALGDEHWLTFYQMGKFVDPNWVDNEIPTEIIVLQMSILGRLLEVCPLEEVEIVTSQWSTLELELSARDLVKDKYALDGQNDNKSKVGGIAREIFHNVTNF

[2] = biological target: T1, Tip20p, full-length (residues 1-701); test: SEC
[3] = biological target: T2, Tip20ΔN (Tip20p residues 82-701); test: SEC
[4] = biological target: T1, Tip20p, full-length (residues 1-701); test: AUC
[5] = biological target: B2; test: pull-down

Binder: B1
binding result [1]: binds
binding result [2]: binds
binding result [3]: binds

Binder: B2
stoichiometry N [4]: 1

Binder: B3
binding result [5]: binds
